T1: human Bak (Homo sapiens, UniProt Q16611)
T1 construct: expressed in transfected cells; host or cells: HEK293
T1 sequence (Q16611 1-211): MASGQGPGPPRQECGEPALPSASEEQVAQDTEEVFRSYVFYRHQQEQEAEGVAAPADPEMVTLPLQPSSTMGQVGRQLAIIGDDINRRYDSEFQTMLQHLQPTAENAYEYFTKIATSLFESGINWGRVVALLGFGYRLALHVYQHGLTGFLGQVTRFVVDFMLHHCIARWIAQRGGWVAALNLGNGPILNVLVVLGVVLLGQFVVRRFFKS

B1: IFNγR2wild type: interferon gamma receptor beta chain, full length, expressed from pEGFP-C2 plasmid as EGFP fusion (protein)
chain: APPDPLSQLPAPQHPKIRLYNAEQVLSWEPVALSNSTRPVVYQVQFKYTDSKWFTADIMSIGVNCTQITATECDFTAASPSAGFPMDFNVTLRLRAELGALHSAWVTMPWFQHYRNVTVGPPENIEVTPGEGSLIIRFSSPFDIADTSTAFFCYYVHYWEKGGIQQVKGPFRSNSISLDNLKPSRVYCLQVQAQLLWNKSNIFRVGHLSNISCYETMADASTELQQVILISVGTFSLLSVLAGACFFLVLKYRGLIKYWFHTPPSIPLQIEEYLKDPTQPILEALDKDSSPKDDVWDSVSIISFPEKEQEDVLQTL
modifications: left off: large carriers
notes: interferon gamma receptor beta chain, full length, expressed from pEGFP-C2 plasmid as EGFP fusion
B2: IFNγR2263-337: cytoplasmic domain of IFNγR2 (amino acids 263-337); recombinant form fused with thioredoxin (rTrx) (protein)
chain: AGACFFLVLKYRGLIKYWFHTPPSIPLQIEEYLKDPTQPILEALDKDSSPKDDVWDSVSIISFPEKEQEDVLQTL
modifications: left off: large carriers

Key:
human Bim EL = experiment: Apoptosis induced by Bim overexpression in HEK293T cells; assay type: cell-based; conditions: 24 h after transfection
Experimental: (§1) Cells were cultured overnight in DMEM supplemented with 10% FBS. The transfections were performed using […]® (Qiagen, Valencia, Calif.) in accordance with the manufacturer's instructions. Transfection efficiency was analyzed by the expression of the EGFP-tagged proteins.
(§2) Apoptosis was induced by transfecting the cells with pcDNA3-human Bax, or pcDNA3-human Bak, or pcDNA3-human Bim EL, or by treatment with etoposide (10 μM) or staurosporine (100 nM). To determine the induction of apoptosis by different apoptotic stresses, cells were stained with Hoechst 33258 dye, and the numbers of cells with apoptotic nuclei were counted using fluorescence microscopy. Three hundred cells were analyzed in triplicate samples. […] Caspase activity were measured by using a fluorogenic caspase 3 substrate II (Calbiochem), IFNγR2 constructs were cloned in pEGFP-C2 (IFNγR2wild type, IFNγR21-295 and IFNγR2296-337) vector.
(§3) For Bax, Bak or Bim EL overexpression, cells were transfected with either 1 μg pcDNA3-human Bax, 1 μg pcDNA3-human Bak, or 1 μg pcDNA3 human Bim EL, and 4 μg of pEGFP plasmid encoding IFNγR2, and the apoptosis or caspase activity was determined 24 h after the transfection.

[1] = system: HT1080 (IFNγR2 null mutant and JAK2 null mutant) cells; experiment: Etoposide-induced apoptosis in HT1080-derived IFNγR2 null and Jak2 null cells (Hoechst nuclear staining); assay type: cell-based, human; conditions: cells lacking IFNγR2 and Jak2, 10 μM etoposide for 24 h
Experimental: HT1080 (wild type, IFNγR2 null mutant and JAK2 null mutant) cells were cultured in Dulbecco's Modified Eagle's Medium (DMEM) supplemented with 10% fetal bovine serum (FBS). HeLa, Human Embryonic Kidney (HEK) 293 and HEK293T cells were purchased from ATCC, and cultured in DMEM supplemented with 10% FBS. LNCap and PC3 cells were purchased from ATCC and cultured in DMEM F12 medium supplemented with 10% FBS. RWPE1 and RWPE2 were purchased from ATCC and cultured in keratinocytes-SFM plus supplements medium (Gibco). Primary mammary epithelial (4A100) cultures were derived from organoids isolated from discarded mammary tissue acquired from patients undergoing reduction mammoplasty surgery. Anonymized specimens were acquired from patients who had given written consent, through the Tissue Procurement and Histology Core Facility of the Case Comprehensive Cancer Center (Case), under a Case CCC IRB approved protocol. Primary epithelial cultures were grown in M87A+X medium. Human HME1 cells (Clontech) were grown in medium 171 with mammary epithelial growth supplement (Cascade Biologics) and penicillin-streptomycin.42 Human breast cancer cell line MDA-MD468 was cultured in RPMI, 5% FBS, supplemented with L-glutamine, penicillin-streptomycin and fungizone (Gibco). […]
Cells were cultured overnight in DMEM supplemented with 10% FBS. […] Transfection efficiency was analyzed by the expression of the EGFP-tagged proteins.
as §2

Bax [2] = target: T2, Bax (Homo sapiens, UniProt Q07812); experiment: Staurosporine-induced Bax activation in HeLa cells (6A7 antibody immunostaining); assay type: cell-based; design: endogenous in cells; host or cells: HeLa; conditions: staurosporine 100 nM, 3 h
T2 sequence (Q07812 whole entry): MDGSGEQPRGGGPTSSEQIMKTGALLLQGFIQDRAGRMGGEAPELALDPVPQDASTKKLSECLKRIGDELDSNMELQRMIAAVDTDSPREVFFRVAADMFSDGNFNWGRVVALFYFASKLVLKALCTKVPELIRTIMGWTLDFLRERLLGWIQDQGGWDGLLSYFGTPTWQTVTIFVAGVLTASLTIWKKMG
Experimental: HeLa cells were transiently transfected with pEGFP-C2-IFNγR2 (wild type 1-295, or 296-337) using […]® (Qiagen, Valencia, Calif.) in accordance with the manufacturer's instructions. Four micograms of the plasmid were used to transfect cells cultured in 6-cm diameter dishes. After 24 h of transfection, the cells were treated with staurosporine (100 nM) for 3 h. Then, the cells were washed with phosphate buffer pH 7.4 (PBS), fixed using paraformaldehyde (1%), permeabilized with Triton X-100 (0.02%), blocked with goat serum, and the activation of Bax was analyzed by immunocytochemistry using monoclonal Bax 6A7 antibody (BDPharmingen) and ALEXA FLUOR® 568-labeled anti-mouse IgG secondary antibody (Invitrogen).

Caspase 3 = experiment: Etoposide-induced Caspase 3 activation in IFNγR2 null cells; assay type: cell-based, human; conditions: 10 μM etoposide for 24 h, plasmid-mediated expression
Experimental: as §2

human Bak = target: T1, human Bak; experiment: Apoptosis induced by Bak overexpression in HEK293 cells; assay type: cell-based; conditions: 24 h after transfection
Experimental: as §1, §2, §3

Bax [3] = target: T2, Bax; experiment: Apoptosis induced by Bax overexpression in HEK293 cells (Hoechst nuclear staining); assay type: cell-based; design: expressed in transfected cells; host or cells: HEK293; conditions: HEK293 cells co-transfected with pcDNA3-h Bax and pEGFP-C2-IFNγR2 construct, 24 h after transfection
Experimental: as §1, §2, §3

human Bax ΔTM = target: T3, human Bax ΔTM (Homo sapiens, UniProt Q07812); experiment: Binding of recombinant proteins (pull-down on anti-Bax beads); conditions: purified recombinant proteins, IFNγR2263-337 tagged with thioredoxin (rTrx)
T3 construct: Bax C terminal transmembrane truncated human Bax; His tag (on MBP) (N, cleaved yes); made in house
T3 sequence (Q07812 1-171 limits assumed, stated change not applied): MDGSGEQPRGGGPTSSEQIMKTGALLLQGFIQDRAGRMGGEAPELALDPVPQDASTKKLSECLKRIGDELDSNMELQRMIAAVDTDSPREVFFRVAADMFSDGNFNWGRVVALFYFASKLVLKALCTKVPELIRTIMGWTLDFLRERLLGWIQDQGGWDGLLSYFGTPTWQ
Excerpt: Recombinant human Bax ΔTM (Bax C terminal transmembrane truncated human Bax) was produced by using pHMTc vector downstream of maltose binding protein (MBP), separated by the TEV protease site. Overexpressed MBP-Bax was purified through a maltose-binding column (NEB) and subsequently cleaved by TEV protease (Invitrogen), followed by Ni-affinity purification to remove the protease and the His-tagged MBP. IFNγR2 cytoplamic domain (amino acids 263 337) was fused with thioredoxin (rTrx) to increase the recovery rate from bacterial lysates. The production and the purification of this fusion protein were performed by Protein X Laboratory (San Diego, Calif.). Recombinant Bax (25 ng) was loaded onto Sepharose G beads pre-equilibrated with anti-Bax antibody (Bax B9, Santa Cruz) or pre-immune IgG (control IgG) at 4° C. for 2 h. The excess Bax molecules were washed 3 times with buffer (50 mM phosphate buffer, pH 7.4). Recombinant IFNγR2 (263-337)-rTrx (25 ng) was added to the beads preloaded with Bax and anti-Bax or control IgG. Beads and IFNγR2263-337-rTrx were incubated at 4° C. for 2 h. After the incubation, beads were extensively washed with the loading buffer (50 mM phosphate buffer, pH 7.4). Beads were boiled in Laemmli buffer, and the supernatant was collected as a sample. Samples were analyzed by western blot using anti IFNγR2 antibody (C20, Santa Cruz) and Bax (N20, Santa Cruz).

Mouse Bax = target: T4, Mouse Bax (Mus musculus, UniProt Q07813); experiment: Yeast-based functional screening for Bax inhibitors; assay type: cell-based; conditions: yeast strain EGY48, galactose-inducible mouse Bax
T4 construct: expressed in transfected cells; host or cells: yeast strain EGY48, pGilda vector
T4 sequence (Q07813 whole entry): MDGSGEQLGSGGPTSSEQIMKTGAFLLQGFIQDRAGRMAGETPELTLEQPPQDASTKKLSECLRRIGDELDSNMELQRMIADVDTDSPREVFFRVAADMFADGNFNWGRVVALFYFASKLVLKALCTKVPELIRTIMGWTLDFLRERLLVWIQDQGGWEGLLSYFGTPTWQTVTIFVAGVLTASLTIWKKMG
Experimental: The yeast strain EGY48 was used for the yeast functional screening for Bax inhibitors. Mouse Bax was expressed under a galactose-inducible promoter using pGilda vector as reported. Yeast expression libraries of cDNAs of mouse brain and a human cell line (HeLa) were prepared in pYES2 and pJG4-5 vectors, respectively.
To perform a yeast-based functional screen for Bax inhibitors, yeast expression cDNA libraries were generated from purified mRNAs of human HeLa cells and mouse brain tissue using pJG4-5 and pYES2 vectors, respectively. […] IFNγR2263-337 contains a Jak2-binding domain (amino acids 284-295). To determine the role of the Jak2-binding domain in Bax inhibition, two IFNγR2 mutants were generated (FIG. 1B) and tested for their anti-Bax activity in human cells as described below.

Molecule	Inhibition of apoptosis induced by Bim overexpression (human Bim EL)	Inhibition of etoposide-induced apoptosis [1]	Inhibition of STS-induced Bax activation (6A7 Ab-positive cells in GFP-positive cells) (Bax [2])	Inhibition of etoposide-induced Caspase 3 activation (Caspase 3)	Rescue from apoptosis induced by Bak overexpression (human Bak)	Inhibition of apoptosis induced by Bax overexpression (Bax [3])	Direct interaction with BaxΔTM (human Bax ΔTM)	Suppression of Bax in yeast (rescue of yeast growth from Bax expression) (Mouse Bax)
B1	able to inhibit apoptosis induced by Bim overexpression	able to inhibit etoposide-induced apoptosis	inhibited STS-induced Bax activation	inhibited etoposide-induced Caspase 3 activation	could not rescue cells from apoptosis induced by Bak overexpression	able to inhibit apoptosis induced by Bax overexpression	–	–
B2	–	–	–	–	–	–	confirmed	Bax suppressor

Source: patent US9458427B2, “IFNγR2 compositions and methods of inhibiting neuronal cell death” (Case Western Reserve University, priority 2009, dated 2016)
